Experimental data from PMC2064704.

How the values were obtained:
[1] = target: endogenous actin filaments of XTC cells (Xenopus laevis (endogenous in XTC)) (UniProt O93400); assay: single-molecule speckle microscopy
[2] = target: endogenous actin filaments of XTC cells (Xenopus laevis (endogenous in XTC)) (UniProt O93400); assay: decay of EGFP fluorescence in permeabilized cells

| Substance | half-life of speckles in lamellipodia [1] [s] | decay rate of fluorescence in lamellipodia of permeabilized cells [2] [s⁻¹] | half-life of persistent speckles after 1 μM Jas [1] [s] | half-life of persistent speckles before Jas [1] [s] | half-life of persistent speckles in lamella away from stress fibers [1] [s] | half-life of persistent speckles on stress fibers [1] [s] |
| --- | --- | --- | --- | --- | --- | --- |
| CPβ1-EGFP expressed in XTC cells (coupled with endogenous CPα subunits) (complex) | 1.23 |  |  |  |  |  |
| EGFP-CPβ1 expressed in XTC cells (coupled with endogenous CPα subunits) (complex) | 1.2 | 0.00017 | 68.9 | 4.26 | 0.95 | 2.9 |
